Where no end group is shown, it is not given here.
T1: epitope peptide Cys-CE3C long (also: biotin label, site not given here)
T1 peptide: CSVNVDKQPKYEYSL


Target: T1, epitope peptide Cys-CE3C long
Assay: competitive ELISA, unlabeled vs biotin-labeled peptide, antibody on anti-human IgG plate
Procedure: A diluted solution of the obtained recombinant humanized antibody, a biotin-labeled immunogen peptide, and Streptavidin-HRP (manufactured by PIERCE) were added to an anti-human IgG antibody-immobilized plate, and reacted overnight at 4° C. […] Next, a recombinant human antibody at the dilution rate, a biotin-labeled immunogen peptide, and Streptavidin-HRP (manufactured by PIERCE) were added. At the same time, a dilution series of unlabeled immunogenic peptide was added and reacted overnight at 4° C. After washing twice with ELISA wash buffer, TMB-Substrate Chromogen (manufactured by Thermo Fisher Scientific) was added to develop color, the reaction was stopped with an equal amount of 0.5N sulfuric acid, and the absorbance at 450 nm was measured. The concentration of the unlabeled peptide which attenuated the signal of the biotin-labeled peptide by half was defined as the affinity (IC50).
A mutant having the heavy chain variable region represented by IGHV7-4-1 Q43R, G44S, N58L, N100D, T100aD, R94P (SEQ ID NO: 33) and the light chain variable region represented by IGKV4-1 (SEQ ID NO: 18) produced in Example 3 was produced. New mutants (h15H11-55 to 67) were produced in which various mutations were introduced into the light chain human framework sequence of the produced mutants, and affinity evaluation was performed on the produced mutants by the method described in Example 5.

| Binder | IC50 [nM] |
| --- | --- |
| h15H11-61 (antibody, human IgG4 S228P, kappa, V domains shown, hIgG4Pro/hIgK) VH: QVQLVQSGSELKKPGASVKVSCKASGYTFTDYNMHWVRQAPGRSLEWMGRINPKNGVILSNEKFKDRFVFSLDTSVSTAYLQISSLKAEDTAVYYCAPSYYGGDDDAYWGQGTLVTVSS VL: DIVMTQSPDSLAVSLGERATINCRASDSVDNYGISFLNWFQQKPGQPPKLLIYAASSQGSGVPDRFSGSGSGTDFTLTINPMEAEDTANYYCQQSKEFPWTFGGGTKVEIKR | 0.79 |
| h15H11-55 (antibody, human IgG4 S228P, kappa, V domains shown, hIgG4Pro/hIgK) VH: QVQLVQSGSELKKPGASVKVSCKASGYTFTDYNMHWVRQAPGRSLEWMGRINPKNGVILSNEKFKDRFVFSLDTSVSTAYLQISSLKAEDTAVYYCAPSYYGGDDDAYWGQGTLVTVSS VL: DIVMTQSPDSLAVSLGERATINCRASESVDNYGISFMNWFQQKPGQPPKLLIYAASSQGSGVPDRFSGSGSGTDFTLTISSMQAEDVAMYYCQQSKEFPWTFGGGTKVEIKR | 0.82 |
| h15H11-56 (antibody, human IgG4 S228P, kappa, V domains shown, hIgG4Pro/hIgK) VH: QVQLVQSGSELKKPGASVKVSCKASGYTFTDYNMHWVRQAPGRSLEWMGRINPKNGVILSNEKFKDRFVFSLDTSVSTAYLQISSLKAEDTAVYYCAPSYYGGDDDAYWGQGTLVTVSS VL: DIVMTQSPDSLAVSLGERATINCRASESVDNYGISFMNWFQQKPGQPPKLLIYAASSQGSGVPDRFSGSGSGTDFTLTINPMQAEDVAVYYCQQSKEFPWTFGGGTKVEIKR | 0.85 |
| h15H11-57 (antibody, human IgG4 S228P, kappa, V domains shown, hIgG4Pro/hIgK) VH: QVQLVQSGSELKKPGASVKVSCKASGYTFTDYNMHWVRQAPGRSLEWMGRINPKNGVILSNEKFKDRFVFSLDTSVSTAYLQISSLKAEDTAVYYCAPSYYGGDDDAYWGQGTLVTVSS VL: DIVMTQSPDSLAVSLGERATINCRASESVDNYGISFMNWFQQKPGQPPKLLIYAASSQGSGVPDRFSGSGSGTDFTLTISSMQAEDVAVYYCQQSKEFPWTFGGGTKVEIKR | 0.89 |

Target: T1, epitope peptide Cys-CE3C long
Assay: ELISA, supernatant IgG on anti-human IgG plate, biotin-peptide + streptavidin-HRP; titer per unit IgG
Procedure: The amount of IgG in the supernatant was determined by the following method. To evaluate the amount of IgG in the supernatant, the culture supernatant was added to an anti-human IgG antibody (manufactured by Jackson) immobilized plate, after reacting at room temperature for 3 hours, washed twice with ELISA wash buffer, and HRP-labeled anti-human IgG antibody (manufactured by Jackson) was reacted at 4° C. overnight. After washing twice with ELISA wash buffer and developing color by adding TMB-Substrate Chromogen (manufactured by Thermo Fisher Scientific), the reaction was stopped with an equal volume of 0.5N sulfuric acid, and the absorbance at 450 nm was measured to calculate (A) the dilution factor of the culture supernatant at which the OD was 1.0.
The titer of IgG in the supernatant against the epitope peptide was determined by the following method. In order to evaluate the titer of IgG in the supernatant against epitope peptides, the culture supernatant was added to an anti-human IgG antibody (manufactured by Jackson) immobilized plate, reacted for 3 hours at room temperature, and then washed twice with ELISA wash buffer, and a biotin-labeled epitope peptide (Cys-CE3C long: SEQ ID NO: 13) and Streptavidin-HRP (manufactured by PIERCE) were added and reacted overnight at 4° C. After washing twice with ELISA wash buffer and developing color by adding TMB-Substrate Chromogen (manufactured by Thermo Fisher Scientific), the reaction was stopped with an equal volume of 0.5N sulfuric acid, the absorbance at 450 nm was measured to calculate (B) the dilution ratio of the culture supernatant at which the OD was 1.0.
The titer (ratio) against the epitope peptide (Cys-CE3C long: SEQ ID NO: 13) per unit IgG amount was calculated as (B)/(A).

| Binder | (B)/(A) titer (ratio) against the epitope peptide per unit IgG amount |
| --- | --- |
| humanized 15H11 CDR graft IGKV4-1 / IGHV1-2 (R94P) (antibody, human IgG4 S228P, kappa, V domains shown, hIgG4Pro/hIgK) VH: QVQLVQSGAEVKKPGASVKVSCKASGYTFTDYNMHWVRQAPGQGLEWMGRINPKNGVINSNEKFKDRVTMTRDTSISTAYMELSRLRSDDTAVYYCAPSYYGGNTDAYWGQGTLVTVSS VL: DIVMTQSPDSLAVSLGERATINCRASESVDNYGISFMNWYQQKPGQPPKLLIYAASSQGSGVPDRFSGSGSGTDFTLTISSLQAEDVAVYYCQQSKEFPWTFGGGTKVEIKR | 0.18 |
| humanized 15H11 CDR graft IGKV4-1 / IGHV7-4-1 (R94P) (antibody, human IgG4 S228P, kappa, V domains shown, hIgG4Pro/hIgK) VH: QVQLVQSGSELKKPGASVKVSCKASGYTFTDYNMHWVRQAPGQGLEWMGRINPKNGVINSNEKFKDRFVFSLDTSVSTAYLQISSLKAEDTAVYYCAPSYYGGNTDAYWGQGTLVTVSS VL: DIVMTQSPDSLAVSLGERATINCRASESVDNYGISFMNWYQQKPGQPPKLLIYAASSQGSGVPDRFSGSGSGTDFTLTISSLQAEDVAVYYCQQSKEFPWTFGGGTKVEIKR | 0.21 |
| humanized 15H11 CDR graft IGKV4-1 / IGHV1-18 (R94P) (antibody, human IgG4 S228P, kappa, V domains shown, hIgG4Pro/hIgK) VH: QVQLVQSGAEVKKPGASVKVSCKASGYTFTDYNMHWVRQAPGQGLEWMGRINPKNGVINSNEKFKDRVTMTTDTSTSTAYMELRSLRSDDTAVYYCAPSYYGGNTDAYWGQGTLVTVSS VL: DIVMTQSPDSLAVSLGERATINCRASESVDNYGISFMNWYQQKPGQPPKLLIYAASSQGSGVPDRFSGSGSGTDFTLTISSLQAEDVAVYYCQQSKEFPWTFGGGTKVEIKR | 0.13 |
| humanized 15H11 CDR graft IGKV4-1 / IGHV1-2 (antibody, human IgG4 S228P, kappa, V domains shown, hIgG4Pro/hIgK) VH: QVQLVQSGAEVKKPGASVKVSCKASGYTFTDYNMHWVRQAPGQGLEWMGRINPKNGVINSNEKFKDRVTMTRDTSISTAYMELSRLRSDDTAVYYCARSYYGGNTDAYWGQGTLVTVSS VL: DIVMTQSPDSLAVSLGERATINCRASESVDNYGISFMNWYQQKPGQPPKLLIYAASSQGSGVPDRFSGSGSGTDFTLTISSLQAEDVAVYYCQQSKEFPWTFGGGTKVEIKR | 0.03 |
| humanized 15H11 CDR graft IGKV4-1 / IGHV1-46 (R94P) (antibody, human IgG4 S228P, kappa, V domains shown, hIgG4Pro/hIgK) VH: QVQLVQSGAEVKKPGASVKVSCKASGYTFTDYNMHWVRQAPGQGLEWMGRINPKNGVINSNEKFKDRVTMTRDTSTSTVYMELSSLRSEDTAVYYCAPSYYGGNTDAYWGQGTLVTVSS VL: DIVMTQSPDSLAVSLGERATINCRASESVDNYGISFMNWYQQKPGQPPKLLIYAASSQGSGVPDRFSGSGSGTDFTLTISSLQAEDVAVYYCQQSKEFPWTFGGGTKVEIKR | 0.13 |
| humanized 15H11 CDR graft IGKV4-1 / IGHV1-3 (R94P) (antibody, human IgG4 S228P, kappa, V domains shown, hIgG4Pro/hIgK) VH: QVQLVQSGAEVKKPGASVKVSCKASGYTFTDYNMHWVRQAPGQRLEWMGRINPKNGVINSNEKFKDRVTITRDTSASTAYMELSSLRSEDTAVYYCAPSYYGGNTDAYWGQGTLVTVSS VL: DIVMTQSPDSLAVSLGERATINCRASESVDNYGISFMNWYQQKPGQPPKLLIYAASSQGSGVPDRFSGSGSGTDFTLTISSLQAEDVAVYYCQQSKEFPWTFGGGTKVEIKR | 0.15 |
| humanized 15H11 CDR graft IGKV3-20 / IGHV7-4-1 (R94P) (antibody, human IgG4 S228P, kappa, V domains shown, hIgG4Pro/hIgK) VH: QVQLVQSGSELKKPGASVKVSCKASGYTFTDYNMHWVRQAPGQGLEWMGRINPKNGVINSNEKFKDRFVFSLDTSVSTAYLQISSLKAEDTAVYYCAPSYYGGNTDAYWGQGTLVTVSS VL: EIVLTQSPATLSLSPGERATLSCRASESVDNYGISFMNWYQQKPGQAPRLLIYAASSQGSGIPARFSGSGSGTDFTLTISRLEPEDFAVYYCQQSKEFPWTFGGGTKVEIKR | 0.15 |
| humanized 15H11 CDR graft IGKV7-3 / IGHV1-2 (antibody, human IgG4 S228P, kappa, V domains shown, hIgG4Pro/hIgK) VH: QVQLVQSGAEVKKPGASVKVSCKASGYTFTDYNMHWVRQAPGQGLEWMGRINPKNGVINSNEKFKDRVTMTRDTSISTAYMELSRLRSDDTAVYYCARSYYGGNTDAYWGQGTLVTVSS VL: DIVLTQSPASLAVSPGQRATITCRASESVDNYGISFMNWYQQKPGQPPKLLIYAASSQGSGVPARFSGSGSGTDFTLTINPVEANDTANYYCQQSKEFPWTFGGGTKVEIKR | 0.04 |
| humanized 15H11 CDR graft IGKV7-3 / IGHV1-46 (R94P) (antibody, human IgG4 S228P, kappa, V domains shown, hIgG4Pro/hIgK) VH: QVQLVQSGAEVKKPGASVKVSCKASGYTFTDYNMHWVRQAPGQGLEWMGRINPKNGVINSNEKFKDRVTMTRDTSTSTVYMELSSLRSEDTAVYYCAPSYYGGNTDAYWGQGTLVTVSS VL: DIVLTQSPASLAVSPGQRATITCRASESVDNYGISFMNWYQQKPGQPPKLLIYAASSQGSGVPARFSGSGSGTDFTLTINPVEANDTANYYCQQSKEFPWTFGGGTKVEIKR | 0.18 |
| humanized 15H11 CDR graft IGKV7-3 / IGHV1-3 (R94P) (antibody, human IgG4 S228P, kappa, V domains shown, hIgG4Pro/hIgK) VH: QVQLVQSGAEVKKPGASVKVSCKASGYTFTDYNMHWVRQAPGQRLEWMGRINPKNGVINSNEKFKDRVTITRDTSASTAYMELSSLRSEDTAVYYCAPSYYGGNTDAYWGQGTLVTVSS VL: DIVLTQSPASLAVSPGQRATITCRASESVDNYGISFMNWYQQKPGQPPKLLIYAASSQGSGVPARFSGSGSGTDFTLTINPVEANDTANYYCQQSKEFPWTFGGGTKVEIKR | 0.21 |
| humanized 15H11 CDR graft IGKV7-3 / IGHV1-2 (R94P) (antibody, human IgG4 S228P, kappa, V domains shown, hIgG4Pro/hIgK) VH: QVQLVQSGAEVKKPGASVKVSCKASGYTFTDYNMHWVRQAPGQGLEWMGRINPKNGVINSNEKFKDRVTMTRDTSISTAYMELSRLRSDDTAVYYCAPSYYGGNTDAYWGQGTLVTVSS VL: DIVLTQSPASLAVSPGQRATITCRASESVDNYGISFMNWYQQKPGQPPKLLIYAASSQGSGVPARFSGSGSGTDFTLTINPVEANDTANYYCQQSKEFPWTFGGGTKVEIKR | 0.22 |
| humanized 15H11 CDR graft IGKV7-3 / IGHV1-18 (R94P) (antibody, human IgG4 S228P, kappa, V domains shown, hIgG4Pro/hIgK) VH: QVQLVQSGAEVKKPGASVKVSCKASGYTFTDYNMHWVRQAPGQGLEWMGRINPKNGVINSNEKFKDRVTMTTDTSTSTAYMELRSLRSDDTAVYYCAPSYYGGNTDAYWGQGTLVTVSS VL: DIVLTQSPASLAVSPGQRATITCRASESVDNYGISFMNWYQQKPGQPPKLLIYAASSQGSGVPARFSGSGSGTDFTLTINPVEANDTANYYCQQSKEFPWTFGGGTKVEIKR | 0.24 |

Source: US20250163145A1 (SHIONOGI, published 2025)
